The values that follow come from article PMC11952967.

For assay [1], the target named is MUTYH L111P (c.248T > C) (human (endogenous in HEK293T)). The experiment in a line: co-IP; MUTYH immunoprecipitated with MUTYH (C-6) antibody on Protein G Dynabeads from nuclear extract of wild-type or homozygous mutant HEK293T cells treated with 0.5 mM H2O2 for 1 h; 1 h at 4°C in PBST; blotted for APE1; APE1 signal quantified relative to MUTYH and normalised to unedited cells.

The target in assay [2] is MUTYH W131* (c.309G > A) (human (endogenous in HEK293T)). The description is as above.
In assay [3] the target is MUTYH L296L (c.802C > T) (human (endogenous in HEK293T)). The assay is described as above.
Assay [4] has as its target MUTYH D271G (c.728A > G) (human (endogenous in HEK293T)). The description is as above.
Assay [5] addresses MUTYH W131* (c.309G > A) (human (endogenous in HEK293T)).
Assay [6] concerns the target MUTYH D271G (c.728A > G) (human (endogenous in HEK293T)).

MUTYH D271G (c.728A > G) (human (endogenous in HEK293T)), sequence (Q9UIF7 whole entry, stated change not applied): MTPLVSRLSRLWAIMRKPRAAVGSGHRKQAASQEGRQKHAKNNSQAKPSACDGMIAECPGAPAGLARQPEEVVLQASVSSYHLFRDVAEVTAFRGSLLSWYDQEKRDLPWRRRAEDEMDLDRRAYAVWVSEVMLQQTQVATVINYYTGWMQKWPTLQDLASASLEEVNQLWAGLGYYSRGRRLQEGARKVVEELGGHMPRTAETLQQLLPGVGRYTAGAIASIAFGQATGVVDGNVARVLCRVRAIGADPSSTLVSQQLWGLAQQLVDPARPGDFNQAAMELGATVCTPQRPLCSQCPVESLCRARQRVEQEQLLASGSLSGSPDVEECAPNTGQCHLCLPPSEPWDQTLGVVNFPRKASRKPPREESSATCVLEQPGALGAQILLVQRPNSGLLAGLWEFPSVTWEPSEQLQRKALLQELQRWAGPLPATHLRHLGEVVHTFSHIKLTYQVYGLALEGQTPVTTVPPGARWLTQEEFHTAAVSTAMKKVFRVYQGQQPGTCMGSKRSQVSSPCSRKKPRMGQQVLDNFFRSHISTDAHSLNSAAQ
MUTYH L111P (c.248T > C) (human (endogenous in HEK293T)), sequence (Q9UIF7 whole entry, stated change not applied): as above
MUTYH L296L (c.802C > T) (human (endogenous in HEK293T)), sequence (Q9UIF7 whole entry): as the sequence (Q9UIF7 whole entry, stated change not applied) above

Consider “APE1 (apurinic/apyrimidinic endodeoxyribonuclease 1) (from UniProt P27695 1-318) (enzyme)”, for which the APE1 signal relative to MUTYH in the MUTYH immunoprecipitate, normalised to wild type (relative to wild-type levels) in assay [1] stood at 0.82; in assay [2], 0.21; in assay [3], 0.8; in assay [4], 0.29. Moreover, the 8-oxoG•[O] repair efficiency (average fold-change in MFI of EGFP+ cells compared to that of unedited HEK293T cells), homozygous W131* clones (fold of unedited HEK293T cells) in assay [5] was 0.34. The 8-oxoG•[O] repair efficiency (average fold-change in MFI of EGFP+ cells compared to that of unedited HEK293T cells), homozygous D271G clones (fold of unedited HEK293T cells) in assay [6] turned out to be 0.56.
